Laboratory results taken from patent US20040253247A1 (Genentech, published 2004).
Where no end group is shown, it is not given here.

Legend:
rabbit albumin = rabbit albumin (rabbit, UniProt P49065 25-608); test: phage ELISA
Protocol: (§1) Phage ELISA—Phage clones (˜10¹¹ phage) were added to plates coated with rat, rabbit or human albumin. The microtiter plate was washed with wash buffer and bound phage were detected with HRP/Anti-M13 Conjugate. The amount of HRP bound was measured using ABTS/H₂O₂ substrate and monitoring the change at 405 nm.

rat albumin = rat albumin (rat, UniProt P02770 25-608); test: phage ELISA
rat albumin, sequence (P02770 25-608 limits assumed): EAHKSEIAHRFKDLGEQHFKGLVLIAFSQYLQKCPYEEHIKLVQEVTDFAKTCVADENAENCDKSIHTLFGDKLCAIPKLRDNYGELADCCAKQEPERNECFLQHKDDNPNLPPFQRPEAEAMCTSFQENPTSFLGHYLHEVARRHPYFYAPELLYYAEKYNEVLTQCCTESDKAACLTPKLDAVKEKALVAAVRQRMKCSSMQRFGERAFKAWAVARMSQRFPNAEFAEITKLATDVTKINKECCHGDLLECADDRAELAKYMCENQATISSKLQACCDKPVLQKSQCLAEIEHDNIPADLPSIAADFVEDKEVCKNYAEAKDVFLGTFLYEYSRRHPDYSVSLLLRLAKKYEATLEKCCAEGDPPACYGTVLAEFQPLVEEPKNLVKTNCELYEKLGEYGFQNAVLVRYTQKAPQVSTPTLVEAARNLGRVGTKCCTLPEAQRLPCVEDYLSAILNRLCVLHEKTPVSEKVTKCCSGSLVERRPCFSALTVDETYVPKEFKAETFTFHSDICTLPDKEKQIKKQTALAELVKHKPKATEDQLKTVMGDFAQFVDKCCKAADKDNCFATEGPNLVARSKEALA
Protocol: as §1

rabbit albumin, sequence (P49065 25-608 limits assumed): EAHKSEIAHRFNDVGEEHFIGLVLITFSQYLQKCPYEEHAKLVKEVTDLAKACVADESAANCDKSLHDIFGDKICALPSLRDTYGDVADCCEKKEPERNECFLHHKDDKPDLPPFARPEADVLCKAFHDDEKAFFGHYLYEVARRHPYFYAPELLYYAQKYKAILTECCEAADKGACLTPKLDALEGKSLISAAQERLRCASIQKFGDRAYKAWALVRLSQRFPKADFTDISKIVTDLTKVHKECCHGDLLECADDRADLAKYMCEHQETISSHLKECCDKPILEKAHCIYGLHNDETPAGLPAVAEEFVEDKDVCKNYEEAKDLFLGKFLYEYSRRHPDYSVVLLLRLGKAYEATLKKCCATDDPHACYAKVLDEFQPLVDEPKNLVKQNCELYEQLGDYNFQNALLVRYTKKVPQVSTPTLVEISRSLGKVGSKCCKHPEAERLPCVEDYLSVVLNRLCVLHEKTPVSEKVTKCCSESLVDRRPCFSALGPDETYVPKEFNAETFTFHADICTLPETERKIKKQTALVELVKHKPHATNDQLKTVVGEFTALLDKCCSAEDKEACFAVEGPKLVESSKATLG

Binder	binding result (rabbit albumin)	binding result (rat albumin)
ELCYFPGICWM (phage clone, Library HC) [HC-H20]	no binding	no binding
EICYFPGICWI [HB-H12]	no binding	no binding
ELCYFPGICWT [HB-H13]	no binding	no binding
DLCYFPGICWM (phage clone, Library HC) [HC-H3]	no binding	no binding
KVCYFPGICWM (not fully specified (bridges); cysteine pairing not given here, phage clone, Library HC) [HC-H5]	no binding	no binding
EMCYFPGICWS (phage clone, Library HC) [HC-H7]	no binding	no binding
DVCYFPGICWM (phage clone, Library HC) [HC-H8]	no binding	no binding
EMCYFPGICWT (phage clone, Library HC) [HC-H9]	no binding	no binding
KTCYFPGICWM (phage clone, Library HC) [HC-H10]	no binding	no binding
EVCYFPGICWF (phage clone, Library HC) [HC-H11]	no binding	no binding
ALCYFPGICWM (phage clone, Library HC) [HC-H14]	no binding	no binding
ELCYFPGICWP (phage clone, Library HC) [HC-H15]	no binding	no binding
EVCYFPGICWE (phage clone, Library HC) [HC-H16]	no binding	no binding
EICYFPGICWM (phage clone, Library HC) [HC-H17]	no binding	no binding
EVCYFPGICWM (phage clone, Library HC) [HC-H19]	no binding	no binding
GGEICYFPGICRVLP (phage clone, Library HBC) [HBC-H4]	no binding	no binding
EHDMCYFPGICWIAD (phage clone, Library HBC) [HBC-H6]	no binding	no binding
VQEVCYFPGICWMQE (phage clone, Library HBC) [HBC-H10]	no binding	no binding
SREVCYYPGICWNGA (phage clone, Library HBC) [HBC-H2]	no binding	no binding

Binder	binding result (rabbit albumin)	binding result (rat albumin)
GTEVCYFPGICWGGG (phage clone, Library HBC) [HBC-H3]	no binding	no binding
SYAPCYFPGICWMGN (phage clone, Library HBC) [HBC-H8]	no binding	no binding
HAEICYFPGICWTER (phage clone, Library HBC) [HBC-H17]	no binding	no binding
NDEICYFPGVCWKSG (phage clone, Library HBC) [HBC-H11]	no binding	no binding
RDTVCYFPGICWMAS (phage clone, Library HBC) [HBC-H18]	no binding	no binding
VRDMCYFPGICWKSE (phage clone, Library HBC) [HBC-H19]	no binding	no binding
ASEICYFPGICWMVE (phage clone, Library HBC) [HBC-H12]	no binding	no binding
QTELCYFPGICWNES (phage clone, Library HBC) [HBC-H13]	no binding	no binding
TTEMCYFPGICWKTE (phage clone, Library HBC) [HBC-H14]	no binding	no binding
KTEICYFPGICWMSG (phage clone, Library HBC) [HBC-H15]	no binding	no binding
IVEMCYYPGICWISP [HB-H10]	no binding	no binding
SGAICYVPGICWTHA [HB-H7]	no binding	no binding
GRSFCMDWPAHKSCTPLML (phage clone, Library HA) [HA-H83]	no binding	no binding
GVRTFCQDWPAHNSCKLLRG (phage clone, Library HA) [HA-H73]	no binding	no binding
QTRSFCADWPRHESCKPLRG (phage clone, Library HA) [HA-H76]	no binding	no binding
MEPSRSVCYAEGICFDRGEQ (phage clone, Library HB) [HB-H8]	no binding	no binding
REPASLVCYFEDICFVRAEA (phage clone, Library HB) [HB-H3]	no binding	no binding
RGPDVCYWPSICFERSMP (not fully specified (bridges); cysteine pairing not given here, phage clone, Library HB) [HB-H6]	no binding	no binding
LVPERIVCYFESICYERSEL (phage clone, Library HB) [HB-H4]	no binding	no binding
